What is called IC50 is the point on the concentration scale where inhibition reaches its midpoint. High values mean lower potency, low ones higher potency.

The text below walks through data of patent US20060094649A1.

The chains are these.
B1: … (peptide)
peptide: GERLPQPPICTI
B2: Her2/neu.921I8 (peptide)
peptide: KPYDGIPI
B3: p53.101.V2 (peptide)
peptide: KVYQGSYGFR
B4: p53.375.V2 (peptide)
peptide: SVSRHKKLMFK
B5: p53.273 (8-mer) (peptide)
peptide: RVCACPGR
B6: MAGE3.138.V2R9 (peptide)
peptide: YVFPVIFSR
B7: MAGE2.71 (peptide)
peptide: FSTTINYTLWR
B8: p53.240 (9-mer) (peptide)
peptide: SSCMGGMNR
B9: p53.132 (peptide)
peptide: KMFCQLAK
B10: MAGE3.138 (peptide)
peptide: YFFPVIFSK
B11: p53.154.V2 (peptide)
peptide: GVRVRAMAIYK
B12: MAGE3.189 (peptide)
peptide: LLGDNQIMPK
B13: p53.101.V2K10 (peptide)
peptide: KVYQGSYGFK
B14: p53.154 (peptide)
peptide: GTRVRAMAIYK
B15: MAGE2.226 (peptide)
peptide: SMLEVFEGR
B16: p53.376.V2R11 (peptide)
peptide: SVSRHKKLMFR
B17: MAGE2/3.116 (9-mer) (peptide)
peptide: LVHFLLLKY
B18: MAGE2/3.116 (8-mer) (peptide)
peptide: LVHFLLLK
B19: p53.124 (peptide)
peptide: CTYSPALNK
B20: MAGE2.73.V2K9 (peptide)
peptide: TVINYTLWK
B21: MAGE2.277 (peptide)
peptide: ALIETSYVK
B22: p53.156.R9 (peptide)
peptide: RVRAMAIYR
B23: p53.156 (peptide)
peptide: RVRAMAIYK
B24: MAGE2.69.K9 (peptide)
peptide: SSFSTTINK
B25: MAGE3.138.V2 (peptide)
peptide: YVFPVIFSK
B26: p53.240 (10-mer) (peptide)
peptide: SSCMGGMNRR
B27: p53.101.K10 (peptide)
peptide: KTYQGSYGFK
B28: CEA.13 (peptide)
peptide: IPWQRLLLTA
B29: MAGE3.77.I8 YPLWSQSI (peptide)
peptide: YPLWSQSI
B30: p53.84 APAPAPSW (peptide)
peptide: APAPAPSW
B31: p53.154 … (peptide)
peptide: GTRVRAMAIYK
B32: p53.273 RVCACPGR (peptide)
peptide: RVCACPGR
B33: p53.124 … (peptide)
peptide: CTYSPALNK
B34: MAGE2.69.K9 … (peptide)
peptide: SSFSTTINK
B35: MAGE3.138.V2 … (peptide)
peptide: YVFPVIFSK
B36: p53.101.K10 … (peptide)
peptide: KTYQGSYGFK

In the first assay the target is HLA-B*4002 (human). In words: competition with radiolabeled probe peptide, purified HLA. As to conditions: remark: other sources report otherwise.
Regarding B1, the IC50 was 9.5 nM.

The target of a further assay is HLA-B*5301 (human). In words: competition vs 125I probe, purified HLA. As to conditions: remark: other sources report otherwise.
Molecule B2 returned an IC50 of 51.7 nM.

For the next assay, the target named is HLA-A*0301 (human). In words: competition vs 125I probe, purified HLA. As to conditions: remark: other sources report otherwise.
With B3, the IC50 came to 38 nM.
Regarding B4, the IC50 came out at 33 nM.
The molecule B5 had an IC50 of 31 nM.
For the molecule B6, the IC50 was found to be 36 nM.
On the same count and under the same terms, as for B7, the figure is 1000 nM; as for B8, 550 nM; as for B9, 29 nM.
B10 showed a half-maximal inhibitory concentration (IC50) of 5000 nM.
B11 came in with an IC50 of 58 nM.
Still for that read-out and setting: as for B12, the figure is 500 nM; as for B13, 33 nM.
Still for that read-out and setting: the value for B14 was 10 nM.

The target of another assay is HLA-A*3301 (human). In words: competition vs 125I probe, purified HLA. The conditions noted are these: remark: other sources report otherwise.
In the case of B15, the IC50 amounted to 9 nM.

For another assay, the target named is HLA-A*6801 (human). The experiment in a line: competition vs 125I probe, purified HLA. The conditions noted are these: remark: other sources report otherwise.
Regarding B3, the IC50 is 40 nM. This counts as double-digit nanomolar.
Same read-out and setting: the value for B9 was 727 nM; that for B16 was 500 nM; that for B17 was 8000 nM.
Same read-out and setting: as for B18, the figure is 400 nM; as for B13, 38 nM.

For a further assay, the target named is HLA-A*3101 (human). In words: competition vs 125I probe, purified HLA. As to conditions: remark: other sources report otherwise.
Molecule B3 displayed an IC50 of 72 nM.
The molecule B6 showed an IC50 of 6 nM.
Still for that read-out and setting: as for B19, the figure is 1500 nM; as for B20, 9000 nM; as for B21, 900 nM.
On the same count and under the same terms, the value for B22 was 9 nM; that for B23 was 5 nM.

A further assay deals with HLA-A*1101 (human). In words: competition vs 125I probe, purified HLA. As to conditions: remark: other sources report otherwise.
Turning to B3, the IC50 turned out to be 62 nM.
On the same count and under the same terms, the value for B8 was 4.3 nM; that for B9 was 17 nM.
Same read-out and setting: as for B24, the figure is 3 nM.
Same read-out and setting: the value for B25 was 3 nM; that for B26 was 70 nM.
The molecule B27 registered an IC50 of 14 nM. This IC50 is about 5-fold lower than that of the molecule before.
Turning to B18, the IC50 was determined as 40 nM.
On the same count and under the same terms, the value for B13 was 9.2 nM.

In another assay the target is HLA-B*5401 (human). In words: competition vs 125I probe, purified HLA. The conditions noted are these: remark: other sources report otherwise.
B28 came in with a concentration for half-maximal inhibition (IC50) of 3.2 nM.

The target in the next assay is HLA-B*0702 (human). The experiment in a line: inhibition of 125I-[..] probe, purified HLA. The conditions noted are these: remark: other sources report otherwise.
Consider B29, for which the IC50 stood at 60 nM.

Another assay concerns the target HLA-B*3501 (human). In words: inhibition of 125I-B35con2 probe, purified HLA. As to conditions: remark: other sources report otherwise.
On to B30, for which the IC50 is 32.7 nM.

A further assay concerns the target HLA-A*0301 (human). The experiment in a line: competitive inhibition of 125I-A3con binding to purified HLA. The conditions noted are these: remark: other sources report otherwise.
B31 registered an IC50 of 10 nM.
B32 registered an IC50 of 31 nM.

For another assay, the target named is HLA-A*3101 (human). The description is as above. As to conditions: remark: other sources report otherwise.
As for B33, the IC50 amounted to 1500 nM.

Another assay concerns the target HLA-A*1101 (human). The description is as above. The conditions noted are these: remark: other sources report otherwise.
Regarding B34, the IC50 came out at 3 nM.
On the same count and under the same terms, as for B35, the figure is 3 nM.
Same read-out and setting: as for B36, the figure is 14 nM.
